This passage reports Kd results from PMC2678197 (2009).

Common to all, as to experiment: NMR
Test [1] addresses T1, CCR3 peptide Su16 8-23 (Homo sapiens, UniProt P51677).
T1 chain: VETFGTTS[sY]YDDVGLL

Test [2] deals with T2, CCR3 peptide Su0 8-23 (Homo sapiens, UniProt P51677).
T2 chain: VETFGTTSYYDDVGLL

Test [3] deals with T3, CCR3 peptide Su17 8-23 (Homo sapiens, UniProt P51677).
T3 chain: VETFGTTSY[sY]DDVGLL

Where no end group is shown, it is not given here. [ ]: non-standard residue; d: D form. sY = N[C@@H](Cc1ccc(OS(=O)(=O)O)cc1)C(=O)O

B1: eotaxin (protein)
chain: not shown
Regarding B1, the Kd was under 5 µM in test [1], 140 µM in test [2] and 22 µM in test [3].
